Blank lines part the entries; values can stand above or below the binder they belong to.
How the values were obtained:
Details in all cases: both partners purified
[1] = target: LC3B wild type (for ITC and NMR) (human, UniProt Q9GZQ8 1-120); assay: ITC; 25 °C, VP-ITC; peptides 0.31 mM titrated into 0.018 mM LC3B proteins in 25 steps; 40 mM Na2HPO4, 80 mM NaCl, pH 7.0; one-site binding model
LC3B K49A (for ITC) = LC3B K49A (for ITC) (human, UniProt Q9GZQ8 1-120, K49A); assay: as above
[2] = target: T1, LC3B wild type (for ITC and NMR) (human, UniProt Q9GZQ8 1-120); assay: as above; remark: listed apart in the source
LC3B K51A (for ITC) = LC3B K51A (for ITC) (human, UniProt Q9GZQ8 1-120, K51A); assay: as above
LC3B R11A (for ITC) = LC3B R11A (for ITC) (human, UniProt Q9GZQ8 1-120, R11A); assay: as above
[3] = target: T1, LC3B wild type (for ITC and NMR); assay: ITC; rows marked WT*: previous set of conditions reported by Novak et al.: 50 mM NaPi, 150 mM NaCl, pH 7.5

- Kd [1]: 99 µM
B1: Nix LIR P0 peptide (unphosphorylated) (peptide)
peptide: AGLNSSWVELPMNSSNG
notes: Nix LIR motif peptide without phosphorylation of Ser34 and Ser35; also called non-phosphorylated P0 peptide; source: synthetic peptide, bought: GenScript USA Inc, 95% pure

- Ka (LC3B K49A (for ITC)): 1.02e+06 M⁻¹
- Kd (LC3B K49A (for ITC)): 0.98 µM
- dH (LC3B K49A (for ITC)): -10.84 ± 0.01 kcal/mol
- stoichiometry N (LC3B K49A (for ITC)): 0.99 ± 0.01
- Ka [2]: 498000 M⁻¹
- Kd [2]: 2.01 µM
- dH [2]: -9.38 ± 0.17 kcal/mol
- stoichiometry N [2]: 1.04 ± 0.01
- Ka (LC3B K51A (for ITC)): 34000 M⁻¹
- Kd (LC3B K51A (for ITC)): 29 µM
- dH (LC3B K51A (for ITC)): -4.7 ± 0.01 kcal/mol
- Ka (LC3B R11A (for ITC)): 233000 M⁻¹
- Kd (LC3B R11A (for ITC)): 4.29 µM
- dH (LC3B R11A (for ITC)): -8.22 ± 0.23 kcal/mol
- stoichiometry N (LC3B R11A (for ITC)): 1.06 ± 0.02
- Ka [3]: 680000 M⁻¹
- Kd [3]: 1.47 µM
- dH [3]: -10.5 ± 0.13 kcal/mol
- stoichiometry N [3]: 0.99 ± 0.01
Binder: RPEEQMESDNCSGGDDDWTHLS [p62 LIR peptide]
